According to article PMC2955668:

What was measured:
[1] = target: SF2-HFNef (HIV-1 (SF2)) (UniProt P03407); assay: co-IP; cytosolic (soluble, high speed supernatant) fraction of co-transfected 293T cells in Buffer B; anti-HA monoclonal antibody precipitates the HF-tagged Nef, untagged Nef detected by Western blot; FD estimated from band densities
[2] = target: NA7-HFNef (HIV-1 (NA7)); assay: as above
[3] = target: SF2-HFNef (HIV-1 (SF2)) (UniProt P03407); assay: co-IP; membrane-associated protein fraction of co-transfected 293T cells, solubilised in Buffer B plus 0.5% IGEPAL CA-630; anti-HA monoclonal antibody precipitates the HF-tagged Nef, untagged Nef detected by Western blot; fractional dimerization (FD) estimated from band densities assuming strict dimers and a binomial distribution
[4] = target: NA7-HFNef (HIV-1 (NA7)); assay: as above
[5] = target: SIV_(MAC239)-HFNef (SIVmac239); assay: as above

UniProt P03407, sequence (P03407 whole entry): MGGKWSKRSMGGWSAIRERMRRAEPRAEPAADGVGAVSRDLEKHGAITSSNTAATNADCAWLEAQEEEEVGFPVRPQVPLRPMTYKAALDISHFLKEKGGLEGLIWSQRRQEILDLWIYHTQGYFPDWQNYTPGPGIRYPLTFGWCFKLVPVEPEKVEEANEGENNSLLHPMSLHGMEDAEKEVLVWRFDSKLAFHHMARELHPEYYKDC

With NA7Nef (natural protein) the fractional dimerization (FD) [1] was 0.23, the fractional dimerization (FD) [2] was 0.35 and the fractional dimerization (FD) [3] was 0.48. It also gave a fractional dimerization (FD) [4] of 0.52.

Substance SIV_(MAC239)Nef (natural protein) has a fractional dimerization (FD) [5] of 0.37.
